Laboratory results: the DeepSol protein solubility set

Experiment: soluble on expression in E. coli; label from the status in PepcDB or PDB records

Soluble on expression in E. coli, not soluble:
MAHHHHHHMKYGQVVVGPAGSGKTNYCKLMKEFMKIKKRNCYVVNLDSASEEYYYERKKKAINTTSNIEKELKQYYDTIYDIDIRNYVDVNSLMEDQMLGPNCALLRSVELLYENSYLLEDELNNYDDDENYFIIDTPGQIELYTHTDYFKKILSIFTDQNIRLIVVFLVDISFISSNTKLLSAYLTSLSTMINFELPHINILTKCDLLASKNYYQELRKFKHNNNFFFQRKLYKKINKKIKGGRGSRFFLNDKAEQSDGEGKRPSDDLGDTFLKEMECINGDKSFKDEYILCSDYDKRSVSSFSSASMSEGRSEKFGKNSSDEHSSSSVRSEEIEEKIYQKNYEKLNDILSLDPHDIVMTANKCMSRKYYKLNNAFAHIIEDFNLVSFIPLNIYDDDNVDFIINSIDMIIQYGEDKDVNDNYDM, MAHHHHHHMSVDFTSKAVDLLKRATTLDEAKEYEEAYRWYMDSIEVFMTAIKYENKNPTKKEMLKNKVRQVMERAKMIKEYLDGSKEGDSNVGNTGSTAQKTASASKKAKEEEEDKQRMRNALGGAIVRVKPNVNWSQIAGLEGAKEALKEAVILPVRFPQLFTGNRKPWKGILMYGPPGTGKSFLAKAVATEADGTFLSVSSADLMSRWLGDSEKLVRNLFEMAREAWKTDGKPAIIFIDEIDSMCSSRTDGENDALRRIKTEFLVQMQGVGHEDDGVLVLGATNIPWSLDSAVRRRFERRIYIPLPDVQARYQMFKIHIGDTPHTLTEKDWYELARMTDKYSGSDINIVVRNAMMECIRSVQVATHFKRVTGPDLKDPTRMTNNRLVPCSPGDPEGFAMTAQEITEPGLLMPLPVTMQDFVKALRTARPSVADDDITQHLKFTEEFGQEG, MRHTLPIAPQFYVTAPQSCPYLEGRLERKLFTALQGEHAQKLNDTLSKQGFRRSQNVLYRPSCAECSACLSARIRVADFEPTRTQRRVMKRNADLRRNATSPWATEDQYALFRRYLDDRHADGGMADMDIFEFAAMIEETPIRSRVIEYSRPGDTPSNRPLSAVCLTDIFDDGLSMVYSFYDPDLAGRSLGAYVILDHIEIAREAGLPYVYLGYWVPGSRKMGYKATYSALEIYKGGRWQAIGQPSDHRAELHPLSVDPIAEQVARISLPEARSGDRSRDLEHHHHHH, MGRKSKNSSQSHAHGPVPGVYPTTTGEVELRADSFLPHAFEVYVNGVPSSHIAQDPEQLEYEYMRWIAAIVDWFVTTHSDPKKLRVTHLGGGACTLARYVCHRYPNARNTVVELDATLATLVREWFDLPRSPQLKIRVGDAWEVAQTFVPSSRDVIIRDVFAGNQTPRRLTTVEFFQQCHQALSPGGLYVANCGDHRDLNVAKAEVQGLREVFDHVACIADPTMLKGRRYGNIILIATDTQLPTDQEQQVLTRLLLGGGVPAQFKGGNWTKNFSSSSTARHD, MDALFNHKEFIRLSHEGNINYEKLKVPKNTELVNTADQRNSHVYLIIDGFVSISMNPESNSIYTILGKGSFVNYYSLFQGNVDDFLFKTISTCTVYKYTFKDLEYFLSMFPENFGFQFFIMRDLARHAFFKSLSSETSSSDKLELSFINIGKLHGTPYEKDSVILPKEMRTSVIAAYSNLSKSSFYKQLARLKDQGKIWKNDREWVLKNKEVYDYLKAREIDV, MAHHHHHHMTNVVECTFKTPPETAKAPDNAIIWNSFQYCDEKGWYSLTNHDEIMLRPTAFSDGRIKFLPQLEKIPEEFESVLCGKYDAKAWGKDDCNIVIEGDKDVHISLPGLQEKINYNHRERFPTFLKNWKIIVGMLNEHITVIRINTETAIIVSINEKSNVTVKCVNFNNGFLCVNPHTNLAIAYGDFALSELKKCELVPNITHEGAEWGFFVHLFKWGHIIIPKDIEIKLPSPGLKLIGKKIDTVAIISLPPNIYIHVKIDGPKCIRKLEYGQDYSITAIKSSESDIDIYLLFDGQLIKYEFSFDTRLNKVGKGRSINYAKLKCTNKSKEVTSFVFQATANSKLLLDSNCPTDNMGHLLCNQTISVFDAETGEYLSHPQGLQLTEVFNTLSYPPEKE, MGSDKIHHHHHHMSSLEDILALTSALIRYRSTDTRPEERDRCAAHIMRWCDAEDIASSRVDNNGVTSLIIGPASKRAPLLFMAHYDVVEGPDALFQPVLSDSVLKGRGSIDDKYAVALSLVLFRDHLRHLRAQGRSQDDMPLQLLITGDEETGGYDGARHALGHVGAEFCIALDGGSPSTVITKEKGIIDCTLTAHGRAAHGARPWLGTNAVECLMADYMALKRLFPGQDDPTDPIHWHRSLNLGIVRAGSAVNQVPDLATAWLDVRYTEHDDPQALFAAMQESIRGELVATRTEPVFHSGETPWIDRLLACAPGASTGFAHGASDARFLSEHGIPGVVWGAEGETSQHGPDEHLLVDSLDTVHKALAAFVRTAGGTA, MSTPVDLTEGLDGAKLAVTVLMIRDSPTGLEVYVQERVSSMPTFPNATVFPGGGVDPRDFELDGVESEHETFGGPSLMHWARSLGTNRNRARALLFAAARELFEETGTLLATHSDGTPIPDATQYHPQRLALESHRLSLSQVLARHDLTLRSEWLRPSTRWVSPETDEKRFDMFAFVAVQPPGQEPDGNTREAASTGWFSPSLILDGWRAGLIRLVIPTWAQLLILSRFDCVRDVLEFLRRADMTPIIGDPVDDPRFEEFYSFTPPERF, MSLVWTKTTYMGINCWKSVSDMWNYQEILSELQPSLVIEFGTRYGGSAVYFANIMRQIGQPFKVLTVDNSHKALDPRARREPDVLFVESSSTDPAIAEQIQRLKNEYPGKIFAILDSDHSMNHVLAEMKLLRPLLSAGDYLVVEDSNINGHPVLPGFGPGPYEAIEAYEDEFPNEGHHHHHH

Soluble on expression in E. coli, soluble:
MANLPSSSGMFSRLLANVFNTTVASRCSASGRWWPQPEYELSKHRSRAPSMGIHRRTRLNVVDNSALGKEADTTGKLPYCIHVYKQGRRAKHMPHAELGDKILVAIRGQMRKAYVVGANTHVHYRKHGVPVTDQNMIVLLDEEGNPLGNRITAPIPTKLMANRGNVQFSKVLALANKFI, MSLKMRNNVFVFDSPYCLLIYCILFNHQLHDTIYIYSDNVSLRDINFPGKERYIIKKGNNKTSKIFYYFCFLFRLIINPKLRKLISNRKDYRFLGQDHLFFSKPFLNEFILLEDGLANYRYPHYSRLYKLIIGGHTFGRSTKVNKILLSGMIDIIDPTINDKVEFFDLIAAWEKLNSVQKKEINHIFNYCIEDELVADVMILTQPLSEDGFISENEKIRLYDEIIKEYDDKKIVIRQHPRELTDYSLYFKDVKVNKVKAPVELVVLNSPMIKTAVTLFSGGIFNIPCREKIFKGTSFSPLLSKHFGNISNKFEVKGKKEGHHHHHH, MLKGIPKIIPPELLKVLCEMGHGDQLVIADGNFPAESIGKNAIVVRMDGHGGGEILKAILTVFPLDTYVDKPATLMEKVPGDTVATPIWDVYAGLIKEHDERGADAIGSLERFAFYEQAKNAYCVIASGESAQYANLILQKGVVFNAE, MAGDPMIPVKNDPIDTRLAEMHEELRDLRNFPDSEFVGIIRELGFKCELCARCCTREFNDHVFLLDSDLERVRSIDPDAVTPAPYYEFCDQNGRFYVSGYALKTKPDGSCIFLENKRCRIYESRPSICRVYPHMLHREADETGKVDWRQISGLNEHGSYHSDLDDPACKEIALETRAYEEAYLQQVIGFFEAVKAHFRTNGLKHIQRTYDRKMREFLKGECDLEIFVYCKGGFEKQKLAKESERLEHHHHHH, MSSEPPPPPQPPTHQASVGLLDTPRSRERSPSPLRGNVVPSPLPTRRTRTFSATVRASQGPVYKGVCKCFCRSKGHGFITPADGGPDIFLHISDVEGEYVPVEGDEVTYKMCSIPPKNEKLQAVEVVITHLAPGTKHETWSGHVISS, MPLSPILRQILQQLAAQLQFRPDMDVKTVREQFEKSSLILVKMANEPIHRVEDITIPGRGGPIRARVYRPRDGERLPAVVYYHGGGFVLGSVETHDHVCRRLANLSGAVVVSVDYRLAPEHKFPAAVEDAYDAAKWVADNYDKLGVDNGKIAVAGDSAGGNLAAVTAIMARDRGESFVKYQVLIYPAVNLTGSPTVSRVEYSGPEYVILTADLMAWFGRQYFSKPQDALSPYASPIFADLSNLPPALVITAEYDPLRDEGELYAHLLKTRGVRAVAVRYNGVIHGFVNFYPILEEGREAVSQIAASIKSMAVA
